Substitutions are numbered along the chain they refer to.
B1: CD123-9 VHH-mIgG2a Fc纳米抗体 (Fc fusion)
chain: EVQLVESGGGLVQPGGSLRLSCAASGFTFSSYDMSWVRQAPGKGLEWVSHIKPGPVGTDYTDSVKGRFTISRDNAKNTLYLQMDSLKTEDTAVYYCARGSRYSWNLDGPLRGQGTQVTVSS
notes: also called 抗CD123 VHH抗体CD123-9; CD123-9抗体; not shown: mouse IgG2a Fc tag from vector C-4pCP.Stuffer-mCg2a-FC
B2: CD123-12 VHH-mIgG2a Fc纳米抗体 (Fc fusion)
chain: B1 chain with G10D
notes: also called 抗CD123 VHH抗体CD123-12; CD123-12抗体; not shown: mouse IgG2a Fc tag from vector C-4pCP.Stuffer-mCg2a-FC

Target: T1, Human IL-3Rα/CD123蛋白 (human, UniProt P26951 19-305, limits assumed)
T1 construct: Soluble antigen in the SPR mobile phase
T1 sequence (looked up): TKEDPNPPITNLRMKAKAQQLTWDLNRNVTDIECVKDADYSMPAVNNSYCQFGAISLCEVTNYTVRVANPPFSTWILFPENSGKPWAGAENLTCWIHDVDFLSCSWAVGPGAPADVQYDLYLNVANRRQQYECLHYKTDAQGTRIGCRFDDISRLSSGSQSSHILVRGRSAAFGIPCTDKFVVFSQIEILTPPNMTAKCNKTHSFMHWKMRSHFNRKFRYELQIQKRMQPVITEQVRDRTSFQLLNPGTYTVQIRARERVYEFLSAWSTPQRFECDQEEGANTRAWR
Test: SPR (Biacore), antibody immobilised on the chip, antigen in the mobile phase

Kd | koff | kon | Binder
0.0466 nM | 1.42e-05 s⁻¹ | 305000 M⁻¹ s⁻¹ | B1
0.0551 nM | 1.62e-05 s⁻¹ | 295000 M⁻¹ s⁻¹ | B2
